Assay results from the DeepSol protein solubility set.

experiment: soluble on expression in E. coli; label from the status in PepcDB or PDB records

Soluble on expression in E. coli, not soluble:
MGSDKIHHHHHHMYDATHLFEPPVMTEEEKMERFKERIENGEKIEADDWMPDFYRDTLIKLISMHGISEIMGALPEKEWVPKAPSLRRKLGIMAKVQDEMGHGQLLLRVVEDLMKPYGKTRADLMDDLFTGRLKFHNVFHMPTRSWADAGTIGWLVDGAAIITQTNMLGASYGPYARALQRICAEEVFHAQHGESIIMALAEGTPEQKAMIQESLDEWWESLLMFFGPASKETTGTSKQDVTIAYKIRTKTNEELRQNFFTKYVPRIRSLGLIIPDPTLRFDEETGQWIYAQPDWTEFKKIIQGGCPRSKERLALRQTSYQNNAWVREALAETIG
MGSDKIHHHHHHMYLKETLDQFASIDNILKLLKKNPSFNKHCIQERLPQKTIITSNKQRKHIYIIEEGFMKLIFDDNKPRDFSYILSKGAFPFLPVYTEDIPEHTMMVALTDIVWWKIDISFFKGMMETEDPRNYLMLHQLAETRRRFYTIAYQEKLTSRESIYYSLSTMIEFGLRISEKIVELPEFLTYQILADHANTSKSYTSKVLGHLREEGILESQRKPWRINDVQKLQKLIEMNVPLVKIQKN
MGSDKIHHHHHHMYNVMNCIIVDDEPLAREAMKLLIEEAECLQLVGSFNSAATASDFMEQHVVDLVFLDIQMPGITGIEFARTISKRTLVIFTTAYTEYALDSYEVDAIDYLIKPVEAERFQKAVEKAQSYHSLLLQEEKEAIETIVAAEYFFVKAERRYFKVNFSDILFVEGLKDYVILQLGEQRIITRMSLKAVFDLLPKDSFLRVNKSYIVNTAHIDSFDNNDIFIKSYEIAIGNSYRDDFFEGFVMKQQRW
MGSDKIHHHHHHMYREFYGLREKPFSKTPDPRYLFLSRGHREALARLQYAVEERELALLTGDIGCGKTTISRALMDAMGEACRFCFIFNPRLSPLEFLRVIARSLGIDNPAGAKDELLKQLTETLYLMHAEGRCPVIVVDEAQLIPDRDVFDEIRLLTNYQLDDQNLMSVVLMGQPELRQILADPVHEPLRQRIALHYHLQPLSLDETLEYIDFRLEVAGGTPGLFSPDAVQRIHELSGGVPRKINILATNALLVGYGRDAAWIDASLVEELRDEANLY
MGSDKIHHHHHHMYSDLNEGVKPYRMTKSHKNIKQCDLLIAGGAAVGLTLAIALKQAAPELKINIVDAAPQEVIPVSNIRALALAAASIRMLKQLQCWEHIAPHAQPIHSMIITDAYTNDPVKPTLLTFEGDITPNEPFAAMVEHKELLNALKKRAKDLDIPFITNMRIVDFHQEDQHTTVTLSNKEIWQTKLLIAADGAHSKLREKAGLKKFSHSYTQTAIICTVEHEKPHHGQAIQHFLPAGPFALLPLKGNRSAIVWNEDHKTAQYYLKADALIFETEIEKRIGHRYGKLSWNGERQGFPLNLSLTRQCIKPRFALIGDAAHTIHPLAGQGLNLGLRDSAALAEVIIETARLGLDIGSLTALERYQSWRRFEIVRMALSNDWLNKLFSNDNLLLRTLRDVGLGIVNQTPKVKKYFIQEAAGLTPHAPRLLHGLPL
MGSDKIHHHHHHNRDPHEGERGLTVAIDNTQCPDVPIGAIKLYIYGTGGNLYATYNYADARGIASVLHPLEAGHYTVAVVINADEEAAETSTLTALHEWLEIEMSHETNLLSGIAEVNVTEDGISPVTVFLQRGVFTLSTLRLQLTLPAPKLPDYTPEKSKTRAAGTANTIRCVAELCKAGTDIVVLHKAVTPVPQADGTYLVELELAEGSYDLRLWTDYARADNPLADTFYHTESLKAVTIVTKPYTANTDAKDAAYYNKSDITLSKEGATMNVQLQRPLAKYRLIAKDVENYRKLMEAKPDIYPPLKNLTVKVLYEGYFPSGFNVSTGKPNDAVGGISYSQVSLHYNDVDNEVLLGGDWVLVNGTESLVNVTVTVTDNLGNTLCRASGVKINYRNSHLTTVYGNFLTAGINKGGIDINTEWSGIYNVWF
MGSDKIHHHHHHNRRELTYSPEATITISADWSQSGLNEKEQDYGATAIFYPTDGSTPFVALMGDRTYKTLCLKEGCYNVVLFNRSFDDFGNLCFRGEENYQTLEAYVKKMEIRNESSSERIIMESPDELAADYIEGFEVTSDMPENYSSAITQQSNRNSTRNENSCHLRFTPKKLTQKITVKIRIKGMNNIRKATCTLDGIAESIFLVSKQNSEKTVTQVLRLSNPIYDSGSVTEGTLSTTISVFGFDVEIPHNLHLKAKLVDGKTIFEESFNDLAIRRLDEEDGTMSVFIDMACEKTVPNVKTEGSSGFDADVDKWNDEVNSDIDI
MGSDKIHHHHHHQTKAEKNGWRLGMQSYSFHLFPLTEALDKTQELGLKYIEIYPGHKLGGKWGDKVFDFNLDAQTQKEIKELAASKGIKIVGTGVYVAEKSSDWEKMFKFAKAMDLEFITCEPALSDWDLVEKLSKQYNIKISVHNHPQPSDYWKPENLLKAISGRSQSLGSCSDVGHWRREGLNQIDCLKQLKGRIISLHFKDIAPKKAGENEQHDVIWGTGILDVKGMLKELKSQNFKGVFSIEYEYNWENSVPDIKECIQYFNKTANEIL
MGSDKIHHHHHHRECVQTSLSWRNDTTGIWETAGWWNSANVLTATIRYGAVTKDPAIPSVIEDVFEKARHYQVGVDSTGTPRYCDNFINDYYDDEGWWALAWIEASKLTGEKKYLDMAEIIFDDMTTGWSDACGGGIFWKKNPLHYKNSIANNLFSLTAIRLYKATQNPAYLDWFKKNVDWYMRTGMINTNIYQIEDGTKDDCTPNRNAHYTYNQGVAIAVLAEMYLQTNDKSYLELAEKIADATITTQLITDEGILREMKPEIDDSNDGVQFKGIFIRHLAFLYEVTKNPAYKDFILKNAESIITKDYDPTSKSFGCYWYGPFHKENSAANACALECVIEAYDLTK
MGSDKIHHHHHHSDKKNTADESEKGVSTVLPDTKNEVAVQILKKRDFHHELVSNGKISARGKADLRFETGEVIAHIYVKNGDRVQKGQKLADLDKFRLEQKLSQSEDALLKAELELKDVLIGQGYSPDDFSKVPAETMKIAKVKSGYEQSKSQYELAKREMEHATLIAPFDGVVANLFSKPYNPANTSEAFCTIIDSKGMEADFTVLENELAFIRMGDKVVITPYAGGDAFEGSVSEINPLVDANGMVKVKALVNAGGKLFSGMNVRVSVRRSLGERLVIPKSAVVLRSGKQVVFTLKDGKAMWNYVNTGLENAIECVVSDKSQKGIEDGLLEGDTVIVTGNLNLAHEAEVYVK
MGSDKIHHHHHHSKDKKSTDTKQTETKKTAKTDGTMTDGTYKLEEKNFDDKGWKGFMSIEVKDGKITKANYDYKNKDGKLKSEDADYEKAMKDKVGTGPQEYLKQLSDSLVKGQSASSVEVVSGATHSSDAFINYANQLIQAAQKADTTTISINNLAKMEDGTYKLEEQNYAHGYRVVFSMDVKDGKITKSDYNYVDKDGKLKSDDADYEKNMKAKSGTGPKEYIPALNKSLVEKQDVAAVDTVSGATNSSNQFKIYAAQLQNAAQNGNTDTIKVYNLVEAE
MGSDKIHHHHHHSLDQAKKLYNDGKYAEAKPVFEKLVKQAPSNASYNQWYGVCCFETGDLAGAEKHLKVAVKRRVQDAYRYLGEVYYQTYRFNEAEEMFDEYITLLTKKKQDVEPYQIRMDLANKASRMLDKVENVQIIDSLVVDKDNFLSAYTLSEESGTLTTYQDFFQTNDPGNSSVYMNQKEDKIYYAHSTDGNHNCLFTQSKLIDQWGDEKQLPMNINSDADDGYPFVLSDGVTIYYASKGNSSLGGYDLFVTRYNINSDTYLTPEQLGMPYNSPFNDYMMVIDEAKQLGWFVSDRYQPEGKVCVYLFIPNDNRERVDSEDIELKRARASIASIKDSWKPGSNYEELIHLAHTEIPYGRIEIKKDFTFPIHNDIVYYTLDDIQSPEAKNYYEKVVSIHKQIKELNEKLESLRASYIKGNKAKREQLKPTILDTEEKLNNLLGQPDEWEKKARNAEIVYLRNNHK
MGSDKIHHHHHHTEETAKVVPMAVITPAINQLTDQEKAEGWALLFDGKTTKGWRGAHKDAFPDHGWMVKDGELIVQKSDGSESTNGGDIVTEGEYSAFEFSVDFKITEGANSGIKYFVTEQEKQKGSAYGLEFQLLDDAKHPDAKLYTTFPGSRTLGSLYDLKKSENIHFNGVGEWNTAVVKVFPNNHVEHWLNGVKVLEYERGSKEFRDLVKGSKYADPSYNAGGAFGEAPKGHILLQDHGDEVAFRNIKVKELK
MGSDKIHHHHHHTQRWLSGNISNFQYLMHLNTLAGRCYNDLSQYPIFPWVLADYTSSQLDFNNISTFRDFSKPMGAQSPDRLEQFLKRFREWDDPSGETPPYMYGTHYSSAMIVVSYLVRLEPFTQQFLSLQGGHFDLADRMFHSVGDAWTSASRNNMADVKELIPEFFTLPEMFTNTNHFDLGVKQNGIHVNDVLLPAWCHGDPREFIRLHRQALESDYVSSHLHEWIDLIFGYKQNGEEAVKNSNLFHHLFYEGSVDFERIDDPLTRNATIGFVNNFGQIPTQLFKKPHPQK
MGSDKIHHHHHHVAISVAGGVRPGKIIEIEHRLYQQLILGKHKASPTLLDDLDLELEADANKLDVEREAILARLMKQIKAKEVFEAVSSQLHETVNNAIEHQLASPELVLAKSEINESQILLLELLLAKNLDATRLRPLISNLSWLCRDLTNMVNSPSFRARRPQSSDVRVTDIKLVMNYIGIENLRTIIPYFCLRNWLPSANAKLLWTTRKLWRYSIVSGIAANALAQLHNTDSALVYSSALLNQLGTSVVLSLSARLFDQTWGAWIREASSSRDKEVYDAVIATEFPAKAVFEQVLSHGHKLNWQLLELLKFEASPLTGLLKELDLTLSYRELSPQAALVARANCYAKVVLLEEMRQIDPQEKRLMFDYYELTEQEVLRLKAQNYRKLDLL
MGSDKIHHHHHHVAQDVITQAPLGFGLGLRTQHFDAVLNTEPDIDWFEVLSENYMVAGGKPRYYLKEIGERYPLVMHGVSLSIGSTDPLNMDYLKALKQLANDVQPQWISDHICWTSIHGVNSHDLLPLPYTEETVKHVAQRIKTVQDFLGRRILMENVSSYLSYQDSSMDEWEFVNAVAEAADCLILLDINNIYVSARNHNFNPLDYLNKINPKRVQQFHLAGHSDYGDYVIDTHDHDVPSCVWDLYCAALKRFGGISTMIERDANIPEFYALEAELTIARNIARDTLGKAHPLNAAKNRKNMHEGKVIA
MGSDKIHHHHHHVARRKEHTHEQIRHMAISAVVEHLQCHGVDNLSLRKVATTIGYVPSTLINIFGSYQYLLLAVSEQTLLQLAAQLQLIKPTTPTKTIEQMAIVYSQFALANRRCFRLVFELTMTDDQPLPAAHLGLIKSLFSDVEFQLSQYFPSACEQEVEMMSRVLWGGIHGLTCLSLDGKLFETQSCLQDMLTSHVSSYIDGMSIKRNSNAAN
MGSDKIHHHHHHVAVWNPWRGCHRYSEGCKFCYIHKGDMKRGMDTNLIVKSAKFNAPVAVNKQGHYIMKSGQLVYCCFSTDFLLEDADPWRDECWSMMKERPDLHFLFLTKRIERFSQCLPGDWGEGYENVTVGCTVENQHTADERLEIFSKLPIKHKNIALQPMLEAIDIEKYLEGIELVVVGGEYDRNARPFDYEWALAVREQCIRHQVSFSFRQCGTNFIQNGKLRRLNYGMLFKCARESNIDYQAGRE
MGSDKIHHHHHHVDQKEISDIVQRILQDGPQTQEDGYCLVRAQARREWSLRLNNGRFERVSTARERGIGVQAFTPEGASGFASVDALTVEAGREAMKRAMSLAEHNAKLGAELNRAIYDASPLKTEGPNPAKLEFEHFSLAELQEQVMFLHKRLLNRSPEHSWQTSYRQVEDSWCIGRTDGTLVSYVVPRAVLMHQGTVRVQGRAKSALVQRSGVDAGLLLLEKEDSDLERRGVERGEFAKQVCVAPHLPSGHYPLIIDYGLAKGLAHEAFGHAVESDHMQESVLGEAGKLRKGLQVARPGVHIIDGPLEGDWAYQPFSANGLVRETVEIVKDGVLQAGLGDIFSAHKAGMPVSGAGRAESYGHIPLPRMTNIRLLVDHVLPLAPASDLMAEISQVRQTLRAAGELHDERKHLLLLGYRGGQVNPKTGDFVFQCDGIIDVADPNLTIYQPSIFSGKILSALQAIRVGLGGGCYDAIGTCGKGGQSVPSSGGSHRYLLLDRDEYVTLGGEQ
